As usually defined, the EC50 is the concentration at which the effect is half-maximal. High values mean a need for much substance, low ones an effect from little substance. A word on the IC50: it is the concentration at which inhibition is half-maximal. A lower IC50 goes with greater potency.

The target in experiment [1] is T1, human CD40 antigen (ACROBiosystems) (human, UniProt P25942 21-193).
T1 construct: Bought antigen coated on ELISA plates; construct not described
The experiment in a line: ELISA, coated antigen. The procedure:
(§1) The binding ability of bispecific antibody to human PD-L1 and human CD40, as well as the species specificity, was detected using an enzyme-linked immunosorbent assay (ELISA). The specific method is as follows: human PD-L1, cynomolgus PD-L1, rat PD-L1, mouse PD-L1, human CD40, cynomolgus CD40, rat CD40, and mouse CD40 antigens (all purchased from ACROBiosystems) were coated with 1 μg/mL carbonate buffer (pH=9.6) in an ELISA plate at 100 μL per well, followed by incubation at 4° C. overnight. The wells were washed 5 times with PBST. 300 μL/well of PBST containing 1% BSA was added to block the wells, and the plate was incubated at room temperature for 1 hour. The wells were washed 5 times with PBST. […] The wells were washed 5 times with PBST. […] The wells were washed 5 times with PBST. Colorimetric substrate TMB was added at 100 μL per well and allowed to develop color at room temperature for 10 minutes, followed by the addition of 1 M sulfuric acid to terminate the reaction. The OD_{450 nm} was read on a microplate reader to analyze the results, and the EC₅₀ was calculated using a 4-parameter fit binding curve.
(§2) These bispecific antibodies are not able to bind to rat PD-L1 and CD40 or mouse PD-L1 and CD40.
On the technique in general: An ELISA detects its analyte on a solid surface through an enzyme-linked reagent.

The target in experiment [2] is T2, cynomolgus CD40 antigen (ACROBiosystems) (cynomolgus, UniProt G7PG38 21-193).
T2 construct: Bought antigen coated on ELISA plates; construct not described
Description: ELISA, coated antigen. The procedure:
as §1, §2

For experiment [3], the target named is T3, rat CD40 antigen (ACROBiosystems) (rat, UniProt A6JXD6 20-193).
T3 construct: Bought antigen coated on ELISA plates; construct not described
T3 sequence: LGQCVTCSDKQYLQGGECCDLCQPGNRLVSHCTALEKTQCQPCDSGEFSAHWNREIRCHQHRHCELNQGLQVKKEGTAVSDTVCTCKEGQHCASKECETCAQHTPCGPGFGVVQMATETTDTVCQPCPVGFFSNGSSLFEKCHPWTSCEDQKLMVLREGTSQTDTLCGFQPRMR
Description: ELISA, coated antigen. The procedure: as §1, §2

Experiment [4] deals with T4, mouse CD40 antigen (ACROBiosystems) (mouse, UniProt P27512 24-193, limits assumed).
T4 construct: Bought antigen coated on ELISA plates; construct not described
T4 sequence (P27512 24-193 limits assumed): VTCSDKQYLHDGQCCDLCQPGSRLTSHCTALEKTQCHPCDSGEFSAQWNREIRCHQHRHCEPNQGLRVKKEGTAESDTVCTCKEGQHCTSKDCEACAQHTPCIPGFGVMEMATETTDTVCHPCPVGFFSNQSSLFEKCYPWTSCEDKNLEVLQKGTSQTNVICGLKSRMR
Description: ELISA, coated antigen. The procedure:
as §1, §2

The target of experiment [5] is T5, human PD-L1 antigen (ACROBiosystems) (human, UniProt Q9NZQ7 19-238).
T5 construct: Bought antigen coated on ELISA plates
T5 sequence (Q9NZQ7 19-238 limits assumed): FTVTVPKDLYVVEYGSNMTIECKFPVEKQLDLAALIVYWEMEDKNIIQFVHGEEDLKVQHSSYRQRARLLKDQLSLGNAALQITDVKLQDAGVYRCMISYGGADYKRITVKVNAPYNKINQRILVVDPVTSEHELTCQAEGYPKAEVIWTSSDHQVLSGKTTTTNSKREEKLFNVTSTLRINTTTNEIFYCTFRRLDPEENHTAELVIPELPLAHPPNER
The experiment in a line: ELISA, coated antigen. The procedure: as §1, §2

Experiment [6] addresses T6, cynomolgus PD-L1 antigen (ACROBiosystems) (cynomolgus, UniProt G7PSE7 19-238).
T6 construct: Bought antigen coated on ELISA plates; construct not described
Description: ELISA, coated antigen. The procedure:
as §1, §2

The target in experiment [7] is T7, rat PD-L1 antigen (ACROBiosystems) (rat, UniProt D4AE25 19-239).
T7 construct: Bought antigen coated on ELISA plates; construct not described
T7 sequence (D4AE25 entry or part of it limits assumed): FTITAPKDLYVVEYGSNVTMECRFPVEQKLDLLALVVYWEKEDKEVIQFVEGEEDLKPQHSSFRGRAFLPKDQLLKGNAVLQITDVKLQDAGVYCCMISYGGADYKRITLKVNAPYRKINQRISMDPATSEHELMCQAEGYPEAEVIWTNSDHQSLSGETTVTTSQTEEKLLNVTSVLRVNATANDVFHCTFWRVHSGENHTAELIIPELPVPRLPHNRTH
Description: ELISA, coated antigen. The procedure: as §1, §2

The target of experiment [8] is T8, mouse PD-L1 antigen (ACROBiosystems) (mouse, UniProt Q9EP73 19-239).
T8 construct: Bought antigen coated on ELISA plates; construct not described
T8 sequence (Q9EP73 19-239 limits assumed): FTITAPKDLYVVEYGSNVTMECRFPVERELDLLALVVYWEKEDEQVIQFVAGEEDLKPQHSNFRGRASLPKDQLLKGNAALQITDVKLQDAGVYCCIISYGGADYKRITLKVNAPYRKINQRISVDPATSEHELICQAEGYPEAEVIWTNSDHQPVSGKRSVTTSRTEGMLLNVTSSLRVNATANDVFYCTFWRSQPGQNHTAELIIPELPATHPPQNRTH
Description: ELISA, coated antigen. The procedure: as §1, §2

The target of experiment [9] is T9, CD40 on HEK-Blue CD40L cells (InvivoGen) (UniProt P25942 21-277, limits assumed). Description: cell-based or functional assay.
T9 sequence (P25942 21-277 limits assumed): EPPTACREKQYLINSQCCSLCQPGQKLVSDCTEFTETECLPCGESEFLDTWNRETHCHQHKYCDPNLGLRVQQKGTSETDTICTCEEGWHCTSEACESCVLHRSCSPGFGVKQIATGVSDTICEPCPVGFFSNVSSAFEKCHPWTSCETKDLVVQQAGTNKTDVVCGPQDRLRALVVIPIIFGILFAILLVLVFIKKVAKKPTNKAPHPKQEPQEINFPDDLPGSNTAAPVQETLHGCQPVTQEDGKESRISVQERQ
Experiment [10] has as its target T9, CD40 on HEK-Blue CD40L cells (InvivoGen). The experiment in a line: flow cytometry, competition with 10 nM Biotin-CD40L on HEK-Blue CD40L cells. The procedure:
The blocking effect of bispecific antibodies on CD40/CD40L binding was tested using HEK-Blue CD40L cells that highly express CD40. The specific method is as follows: HEK-Blue CD40L cells were collected and resuspended in pre-cooled PBS containing 2% FBS at a density of 1E7 cells/mL, and then added to a 96-well plate at 50 μL per well, i.e., 5E5 cells/well. Biotin-CD40L (FutureGen Biopharmaceutical) and serially diluted bispecific antibody were then added at 50 μL per well, with a final concentration of Biotin-CD40L of 10 nM, and the plate was incubated at 4° C. for 1 hour. The wells were washed twice with pre-cooled PBS. Streptavidin-PE (BioLegend, Cat. No. 405203) diluted in pre-cooled PBS containing 2% FBS was added, and the plate was incubated at 4° C. for 30 minutes. The wells were washed twice with pre-cooled PBS. The cells were then resuspended in pre-cooled PBS containing 2% FBS and assayed by flow cytometry.
On the technique in general: In flow cytometry, cells or beads pass a laser one at a time.

In experiment [11] the target is T1, human CD40 antigen (ACROBiosystems). The experiment in a line: bridging ELISA: coated human CD40, serially diluted bispecific antibody, detection with biotin-labeled human PD-L1 and streptavidin-HRP, OD450. The procedure: Antigen human CD40 (purchased from ACROBiosystems) was coated with 1 μg/mL carbonate buffer (pH=9.6) in an ELISA plate at 100 μL per well, followed by incubation at 4° C. overnight. The wells were washed 5 times with PBST. 300 μL/well of PBST containing 1% BSA was added to block the wells, and the plate was incubated at room temperature for 1 hour. The wells were washed 5 times with PBST. […] The wells were washed 5 times with PBST. Biotin-labeled human PD-L1 (FutureGen Biopharmaceutical) diluted with PBST containing 1% BSA was added at 100 μL per well, and the plate was incubated at room temperature for 1 hour. The wells were washed 5 times with PBST. Streptavidin-HRP (BioLegend, Cat. No. 405210) diluted with PBST containing 1% BSA was added at 100 μL per well, and the plate was incubated at room temperature for 30 minutes. Colorimetric substrate TMB was added at 100 μL per well and allowed to develop color at room temperature for 10 minutes, followed by the addition of 1 M sulfuric acid to terminate the reaction. The OD_[…] was read on a microplate reader to analyze the results, and the EC₅₀ was calculated using a 4-parameter fit binding curve.

T1 sequence (P25942 21-193 limits assumed): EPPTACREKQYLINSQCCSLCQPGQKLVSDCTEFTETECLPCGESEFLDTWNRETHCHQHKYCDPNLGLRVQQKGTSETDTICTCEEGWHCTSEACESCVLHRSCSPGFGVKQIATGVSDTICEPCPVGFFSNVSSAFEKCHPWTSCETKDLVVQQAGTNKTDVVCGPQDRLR
T6 sequence (G7PSE7 entry or part of it): as the sequence (Q9NZQ7 19-238 limits assumed) above, with A33T, A34S, S62N, R68Q, Q82R, F173L, T185A, T192I, H215L counted along it

B1: anti-PD-L1/CD40 bispecific antibody 1606 (bispecific antibody, human IgG2, kappa)
light: DIQMTQSPSSLSASVGDRVTITCRASQDIRNYLNWYQQKPGKAPKLLIYYTSRRDSGVPSRFSGSGSGTDYTLTISSLQPEDFATYFCQQGKTLPWTFGGGTKVEIKRTVAAPSVFIFPPSDEQLKSGTASVVCLLNNFYPREAKVQWKVDNALQSGNSQESVTEQDSKDSTYSLSSTLTLSKADYEKHKVYACEVTHQGLSSPVTKSFNRGEC
heavy: EVQLVESGGGLVQPGGSLRLSCAASGFTFSDYYMSWVRQAPGKGLEWVGFIRNKANGYTTEYAASVKGRFTISRDNSKNTLYLQMNSLRAEDTAVYYCARYGGLRQGWYFDVWGQGTLVTVSSASTKGPSVFPLAPCSRSTSESTAALGCLVKDYFPEPVTVSWNSGALTSGVHTFPAVLQSSGLYSLSSVVTVPSSNFGTQTYTCNVDHKPSNTKVDKTVERKCCVECPPCPAPPVAGPSVFLFPPKPKDTLMISRTPEVTCVVVDVSHEDPEVQFNWYVDGVEVHNAKTKPREEQFNSTFRVVSVLTVVHQDWLNGKEYKCKVSNKGLPAPIEKTISKTKGQPREPQVYTLPPSREEMTKNQVSLTCLVKGFYPSDIAVEWESNGQPENNYKTTPPMLDSDGSFFLYSKLTVDKSRWQQGNVFSCSVMHEALHNHYTQKSLSLSPGGGGGSGGGGSGGGGSGEVQLVESGGGLVQPGGSLRLSCAASGFTFDYYTQCWFRQAPGKEREWVSCISSSEGSTYYADSVKGRFTISRDNSKNTVYLQMNSLKTEDTAVYYCAARKGGPLTIENFFDYWGQGTQVTVSS
notes: First polypeptide chain = anti-CD40 light chain; second polypeptide chain = anti-CD40 heavy chain with the 1541 VHH joined to its C-terminus by a G4S linker
Regarding B1, the EC50 in experiment [1] is 0.024 nM; in experiment [2] it was 0.02 nM; in [5], 0.039 nM; in [6], 0.022 nM; in [11], 0.04 nM. Further, the binding result in experiment [3], in experiment [4], in [7] and in experiment [8] was “no binding” each time. Besides, in [9], the “CD40 agonistic activity (A)/(B) Ratio, EC50 without over with CHO/PD-L1” value is 3.7. In addition, the “CD40 agonistic activity EC50 (nM) with CHO/PD-L1 (B), SEAP reporter” value in experiment [9] was found to be 0.017 nM. In addition, the “CD40 agonistic activity EC50 (nM) without CHO/PD-L1 (A), SEAP reporter” value in [9] was determined as 0.061 nM. The same molecule displayed an IC50 in [10] of 0.78 nM.

B2: anti-PD-L1/CD40 bispecific antibody 1607 (bispecific antibody, human IgG2, kappa)
light: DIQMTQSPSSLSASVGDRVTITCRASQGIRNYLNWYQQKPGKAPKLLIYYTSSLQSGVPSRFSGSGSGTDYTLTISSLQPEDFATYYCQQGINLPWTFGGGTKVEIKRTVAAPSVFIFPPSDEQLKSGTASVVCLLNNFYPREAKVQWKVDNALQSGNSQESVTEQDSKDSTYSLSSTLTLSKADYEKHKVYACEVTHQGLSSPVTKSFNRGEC
heavy: EVQLVESGGGLVQPGGSLRLSCAASGFTFSDYYMSWVRQAPGKGLEWVGFIRNKANGYTTEYAASVKGRFTISRDNSKSTLYLQMNSLRAEDTAVYYCARYGGLKKGWYFDLWGQGTLVTVSSASTKGPSVFPLAPCSRSTSESTAALGCLVKDYFPEPVTVSWNSGALTSGVHTFPAVLQSSGLYSLSSVVTVPSSNFGTQTYTCNVDHKPSNTKVDKTVERKCCVECPPCPAPPVAGPSVFLFPPKPKDTLMISRTPEVTCVVVDVSHEDPEVQFNWYVDGVEVHNAKTKPREEQFNSTFRVVSVLTVVHQDWLNGKEYKCKVSNKGLPAPIEKTISKTKGQPREPQVYTLPPSREEMTKNQVSLTCLVKGFYPSDIAVEWESNGQPENNYKTTPPMLDSDGSFFLYSKLTVDKSRWQQGNVFSCSVMHEALHNHYTQKSLSLSPGGGGGSGGGGSGGGGSGEVQLVESGGGLVQPGGSLRLSCAASGFTFDYYTQCWFRQAPGKEREWVSCISSSEGSTYYADSVKGRFTISRDNSKNTVYLQMNSLKTEDTAVYYCAARKGGPLTIENFFDYWGQGTQVTVSS
notes: as for B1
Regarding B2, the EC50 in [1] turned out to be 0.02 nM; in experiment [2], 0.016 nM; in experiment [5], 0.036 nM; in [6], 0.019 nM; in experiment [11], 0.032 nM. For the same molecule, the binding result in experiment [3], in experiment [4], in experiment [7] and in experiment [8] was “no binding” in each case. Moreover, the “CD40 agonistic activity (A)/(B) Ratio, EC50 without over with CHO/PD-L1” value in experiment [9] worked out at 2.4. Further, the “CD40 agonistic activity EC50 (nM) with CHO/PD-L1 (B), SEAP reporter” value in experiment [9] worked out at 0.012 nM. Also, the “CD40 agonistic activity EC50 (nM) without CHO/PD-L1 (A), SEAP reporter” value in [9] is 0.029 nM. The half-inhibitory concentration (IC50) in [10] was determined as 0.703 nM.

B3: anti-PD-L1/CD40 bispecific antibody 1608 (bispecific antibody, human IgG2, kappa)
light: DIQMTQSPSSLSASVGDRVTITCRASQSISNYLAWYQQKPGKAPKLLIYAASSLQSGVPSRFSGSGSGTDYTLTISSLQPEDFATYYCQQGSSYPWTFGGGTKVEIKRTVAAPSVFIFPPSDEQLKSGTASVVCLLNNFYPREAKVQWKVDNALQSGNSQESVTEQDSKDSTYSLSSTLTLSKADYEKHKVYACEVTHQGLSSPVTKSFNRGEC
heavy: EVQLVESGGGLVQPGGSLRLSCAASGFTFSNYYMSWVRQAPGKGLEWVGFIRNKANGYTTEYAASVKGRFTISRDNSKSTLYLQMNRLRAEDTAVYYCARYGGLKVGWYFDLWGQGTLVTVSSASTKGPSVFPLAPCSRSTSESTAALGCLVKDYFPEPVTVSWNSGALTSGVHTFPAVLQSSGLYSLSSVVTVPSSNFGTQTYTCNVDHKPSNTKVDKTVERKCCVECPPCPAPPVAGPSVFLFPPKPKDTLMISRTPEVTCVVVDVSHEDPEVQFNWYVDGVEVHNAKTKPREEQFNSTFRVVSVLTVVHQDWLNGKEYKCKVSNKGLPAPIEKTISKTKGQPREPQVYTLPPSREEMTKNQVSLTCLVKGFYPSDIAVEWESNGQPENNYKTTPPMLDSDGSFFLYSKLTVDKSRWQQGNVFSCSVMHEALHNHYTQKSLSLSPGGGGGSGGGGSGGGGSGEVQLVESGGGLVQPGGSLRLSCAASGFTFDYYTQCWFRQAPGKEREWVSCISSSEGSTYYADSVKGRFTISRDNSKNTVYLQMNSLKTEDTAVYYCAARKGGPLTIENFFDYWGQGTQVTVSS
notes: as for B1
For B3, the EC50 in [1] came out at 0.022 nM; in [2] it was 0.02 nM; in experiment [5], 0.038 nM; in [6] it was 0.019 nM; in experiment [11], 0.029 nM. Moreover, the binding result in experiment [3], in experiment [4], in [7] and in experiment [8] was “no binding” in each case. In addition, in experiment [9], the “CD40 agonistic activity (A)/(B) Ratio, EC50 without over with CHO/PD-L1” value worked out at 20.2. Further, the “CD40 agonistic activity EC50 (nM) with CHO/PD-L1 (B), SEAP reporter” value in experiment [9] is 0.02 nM. The “CD40 agonistic activity EC50 (nM) without CHO/PD-L1 (A), SEAP reporter” value in [9] was 0.396 nM. In addition, the IC50 in experiment [10] worked out at 4.54 nM.

These data come from patent US20250376533A1 (FUTUREGEN BIOPHARMACEUTICAL BEIJING, published 2025).
